Laboratory results from article PMC12106674.

Assays:
[1] = target: recombinant biotinylated human FcRn (Immunitrack) (human) (UniProt P55899)
[2] = target: recombinant biotinylated human FcRn (Immunitrack) (human) (UniProt P55899); remark: listed apart in the source
[3] = target: recombinant biotinylated human FcRn (Immunitrack) (human) (UniProt P55899); assay: SPR; biotinylated human FcRn (~100 RU) captured on an SA sensor chip; 2-fold serial dilutions of albumin variants or GLP-1 albumin fusions injected in duplicates; pH 5.5 PBS (177 mM phosphate, 85 mM NaCl, 0.05% Tween 20), 25 °C, 40 µL/min; 1:1 Langmuir model
[4] = target: human FcRn of the human FcRn Affinity Column (Roche) (human) (UniProt P55899); assay: analytical FcRn affinity chromatography; human FcRn Affinity Column (Roche); albumin or GLP-1 albumin fusions (2 mg/mL) loaded at pH 5.5 and eluted by a pH gradient from 5.5 (20 mM MES/HCl, 140 mM NaCl) to 8.8 (20 mM Tris/HCl, 140 mM NaCl), 0.5 mL/min, 110 min, room temperature
[5] = target: human GLP-1 receptor (GLP-1R) on reporter cells (human) (UniProt P43220)
Chain of UniProt P43220 (P43220 24-463): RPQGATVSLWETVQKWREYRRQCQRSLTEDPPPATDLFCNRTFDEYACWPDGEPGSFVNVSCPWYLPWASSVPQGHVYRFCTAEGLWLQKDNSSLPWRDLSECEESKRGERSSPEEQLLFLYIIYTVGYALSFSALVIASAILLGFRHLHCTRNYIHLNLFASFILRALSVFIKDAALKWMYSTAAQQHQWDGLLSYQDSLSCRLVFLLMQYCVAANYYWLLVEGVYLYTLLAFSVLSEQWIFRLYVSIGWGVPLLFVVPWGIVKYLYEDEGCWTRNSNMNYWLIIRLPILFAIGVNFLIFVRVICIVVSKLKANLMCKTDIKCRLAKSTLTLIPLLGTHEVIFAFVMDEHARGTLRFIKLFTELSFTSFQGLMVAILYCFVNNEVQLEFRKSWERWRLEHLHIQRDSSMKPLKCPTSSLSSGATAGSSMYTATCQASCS

[6] = target: recombinant biotinylated human FcRn (Immunitrack) (human) (UniProt P55899); remark: listed apart in the source

Substance | cellular recycling in HERA with HMEC-1-FcRn cells (800 nM), relative to GLP-1 WT [1] | plasma half-life after IV injection in homozygous human FcRn Tg32 mice (GLP-1 WT: 1.3 days) [2] [h] | Kd [3] [nM] | koff [3] [s⁻¹] | kon [3] [M⁻¹ s⁻¹] | elution pH [4] [pH] | EC50 of luciferase signal in human GLP-1R reporter cells (0.08–6250 nM, 23 h) [5] [nM] | plasma half-life after IV injection in hemizygous human FcRn Tg32 mice [6] [h] | EC50 of luciferase signal in human GLP-1R reporter cells (0.00062–50 nM, 23 h) [5] [nM]
GLP-1 LX (GLP-1 albumin fusion with WT albumin lacking L585) | 2 fold less | 21.6 | 515 | 0.0221 | 43000 | 6.3 |  |  | 
GLP-1 QMP (GLP-1 albumin fusion with QMP-engineered albumin) | 4.5 fold | 64.8 | < 0.03 | < 1e-05 | 381000 | 7.8 | 44.4 |  | 
GLP-1 QMP/LX (GLP-1 albumin fusion with QMP-engineered albumin lacking L585) |  |  | 0.2 |  |  |  |  |  | 
GLP-1 WT (albiglutide-mimic; two GLP-1(7-36) A2G in tandem fused to the N-terminus of human WT albumin) (from UniProt P02768 25-609) |  |  | 114 |  |  | 6.7 | 50 |  | 
QMP variant recombinantly expressed without the L585 residue (QMP/LX) (natural protein) |  |  | 0.9 | 0.0001 | 115000 |  |  | 103 | 
QMP-engineered human albumin (E505Q, T527M, K573P), full-length (natural protein) |  |  | 0.3 | 4e-05 | 144000 |  |  | 108 | 
Tanzeum (albiglutide) (from UniProt P02768 25-609) |  |  | 76.1 |  |  | 6.9 |  |  | 
human albumin L585I (natural protein) |  |  | 604 | 0.0175 | 29000 |  |  |  | 
human albumin L585M (natural protein) |  |  | 678 | 0.0197 | 29000 |  |  |  | 
human albumin L585V (natural protein) |  |  | 684 | 0.0233 | 34000 |  |  |  | 
unfused GLP-1(7–36) included in the reporter assay kit (peptide) |  |  |  |  |  |  |  |  | 0.28
